Test: yeast display, Sf9 membrane polyspecificity reagent, FACS + sequencing; frameworks hold sequencing errors
Procedure, shortened: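 Sorting gates, low and high (top ~1%), were placed on anti-HA fluorescence to track expression and on streptavidin fluorescence to track reagent binding. A clone's polyreactivity label is taken from the gate it came out of. The reagent was 10% biotinylated, detergent-solubilized Sf9 membrane, applied for 1 hour at 4 °C to galactose-induced yeast display cells.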

| Sequence | polyreactivity (PSR sort gate) |
| --- | --- |
| QVQLVESGGGLVQAGGSLRLSCAASGFTFSRYAMGWYRQAPGKERELVAVITWNGGRTYYADSVKGRFTISRDNAKNTVYLLMNSLKPEDTAVYYCKAYYFFLPYRYSTYDYWGQGTQVTVSS | high polyreactivity |
| QVQLVESGGGLVQAGGSLRLSCAASGFTFSRYTMGWYRQAPGKERELVAAITSSGGSTYYADSVKGRFTISRDNAKNTVYLQMNSLKPEDTAVYYCAARRRESDQRGYCGQGTQVTVSS | high polyreactivity |
| QVQLVESGGGLVQAGGSLRLSCAASGFTFSSYAMGWYRQAPGKERELVAAISYSGGSTYYADSVKGRFTISRDNAKNTVYLQMNSLKPEDTAVYYCAAQRGSEYYWGQGTQVTVSS | high polyreactivity |
| QVQLVESGGGLVQAGGSLRLSCAASGFTFSSYAMGWYRQAPGKERELVAAITISGGRTYYSDSVKGRFTISRDNAKNTVYLQMNSLKPEDTAVYYCNTDYGRRYDYWGQGTQVTVSS | high polyreactivity |
| QVQLVESGGGLVQAGGSLRLSCAASGFTFSTNAMGWYRPAPGKERELVAAISYGGVSTYYADSVKGRFTISRDNAKNTVYLQMNSLKPEDTAVYYCAAGRITTRLYGDPFDYWGQGTQVTVSS | low polyreactivity |
| QVQLVESGGGLVQAGGSLRLSCAASGFTFSTNAMGWYRPAPGKEREVVAAITWRGGSTYYADSVKGRFTISRDNAKNTVYLQMNSLKPEDTAVYYCARRYRGSHVSYYKKFDYWGQGTQVTVSS | low polyreactivity |
| QVQLVESGGGLVQAGGSLRLSCAASGFTFSTNAMGWYRQAPGKERELVAAISCTGGSTYYADSVKGRFTISRDNAKNTVYLQMNSLKPEDTAVYYCATKFFNPGMYFWGQGTQVTVSS | high polyreactivity |
| QVQLVESGGGLVQAGGSLRLSCAASGFTFSTYAMGWYRQAPGKERECVAAISSGGTTNYADSVKGRFTISRDNAKNTVYLQMNSLKPEDSAVYYCAADWYRYYEYGAYGYWGQGTQVTLSS | low polyreactivity |
| QVQLVESGGGLVQAGGSLRLSCAASGFTFSTYAMGWYRQAPGKERELVAAISFSGGSTYYADSVKGRFTISRDNAMNSVYLQMNRLKPEDTAVYYCARAYTKYFEIYFIYALLYGHWGQGTQVTVSS | low polyreactivity |
| QVQLVESGGGLVQAGGSLRLSCAASGFTFSVNAMGRYRQAPGKERELVAAISSRGSITYYADSVKGRFTISRDNAKNTVYLQMNSLKPEDPAVYYCNAYKYKSPGDYWGQGTQVTVSS | high polyreactivity |
| QVQLVESGGGLVQAGGSLRLSCAASGFTFSVYAMGWYRQAPGKERELVAAINWSGSTTYYADSVKGRFTISRDNAKNTVYLQMNSLKPEDTAVYYCAVEGRTTWPFRTYGYWGQGTQVTVSS | high polyreactivity |
| QVQLVESGGGLVQAGGSLRLSCAASGFTFSVYAMGWYRQAPGKERELVAAISDSGGRTYYADSVKGRFTISRDNEKNTVYLQMNSLKPEDSAVYYWKARPAGRGYNYWGQGTQVTVSS | high polyreactivity |
| QVQLVESGGGLVQAGGSLRLSCAASGFTFSVYAMGWYRQAPGKERELVAAISRGGGGTYYADSVKGRFTISRDNAKNTVYLQMNSLKPEDTAVYYCNAAGYPQYKGYDYWGQGTQVTVSS | high polyreactivity |
| QVQLVESGGGLVQAGGSLRLSCAASGFTFSVYAMGWYRQAPGKERELVADIDWSGGSTYYADSVKGRFTISRDNAKNTVYLQMNSLNPEDTAVYYCAADYYYPDSYVQGTSGEYWGQGTQVTVSS | low polyreactivity |
| QVQLVESGGGLVQAGGSLRLSCAASGFTFSWYALGWYRQAPGKESELVAAINWSGTSTYYADSVKGRFTISRDNAKNTVYLQMNSLKPEDTAVYYCNVVVYRWSPVSKLDYWGQGTQVTVSS | high polyreactivity |
| QVQLVESGGGLVQAGGSLRLSCAASGFTFSWYAMGWYRQAPGKERELVAAINADGGTTYYADSVKGRFTISRDNAKNTVYLQMHSLKPEDTAVYYFAAELSVDKYDYWGQGTQVSVSS | low polyreactivity |
| QVQLVESGGGLVQAGGSLRLSCAASGFTFSWYAMGWYRQAPGKERELVAAISLSGDRTYYADSVKGRFTISRDNAKNSVYLQMNSLKPDDTAVYYCVFAFEYFYWGQGTQVTVSS | low polyreactivity |
| QVQLVESGGGLVQAGGSLRLSCAASGFTFSYNAMGWSRQAPGKERELVAAISSAGSTYYADSVKGRFTISRDNAKNTVYLQMNSLKPEDTAVYYCNAYRRSYRWYGDLGEYWGQGTQVTVSS | high polyreactivity |
| QVQLVESGGGLVQAGGSLRLSCAASGFTFSYNAMGWYRQAPGKERELVAAIDWGGGSTYSYSVKGRFTISRDNAKNTVYLQMNSLKPEDTAVYYCAAYIPSSGRNPEIGVEYDYWGQGTQVTVSS | low polyreactivity |
| QVQLVESGGGLVQAGGSLRLSCAASGFTFSYNAMGWYRQAPGKERELVAAISSTGTSTYYADSVKGRFTISRDNAKNTVYLQMNSLKPEDTAVYYCNAYGYDGYYAGRHGYWGQGTQVTVSS | low polyreactivity |
| QVQLVESGGGLVQAGGSLRLSCAASGFTFSYYAMGWSRPEPGKERELVAAISSSASRTYYAESVKGRFTISRDNAKNTVYFQMNSLKPEDTAVYYCAARYSESRTRHLDYWGQGTQVTVSS | high polyreactivity |
| QVQLVESGGGLVQAGGSLRLSCAASGFTFSYYAMGWYRQAPGKERELVAAISSGGSTNYADSVKGRFTISRDNAKNTVYLQMNSLKPEVTAVYYCNVRLYYPTYASMEYWGQGTQVTVSS | low polyreactivity |

| Sequence | polyreactivity (PSR sort gate) |
| --- | --- |
| QVQLVESGGGLVQAGGSLRLSCAASGFTFSYYAMGWYRQAPGKERELVASISRSGNTYYADSVKGRFTISRDNAKNTVYLQMNSLKPEDTAVYYCNARRHYRRYSYRHNYWGQGTQVTVSS | high polyreactivity |
| QVQLVESGGGLVQAGGSLRLSCAASGFTFTAYAMGWYRQAPGKERELVAAINWSGSRTYYADSVKGRFTISRDNAKNTVYLQMNSLIPEDSAVYYCNTATSKSSYRHYDYWGQGTQVTVSS | high polyreactivity |
| QVQLVESGGGLVQAGGSLRLSCAASGFTFTGNAMGWYRQAPGKERELVAAITSGTSTYYADSVKGRFTISRDNAKNTVYLQMNSLKPEDTAVYYCAKEYPLDGRGSDYCGQGTQVTVSS | low polyreactivity |
| QVQLVESGGGLVQAGGSLRLSCAASGFTFTKYDMGWYRQAPGKETELVAVITWSGGSTYYADSVKGRFTISRDNAKNTVYLQMNSLKPEDTAVYYCNAEAPRYTYGRMDYWGQGTQVTVSS | low polyreactivity |
| QVQLVESGGGLVQAGGSLRLSCAASGFTFTPNAMGSYRQAPGKERELVAAITSGGNTYADSVKGRFTISRDNAKNTVYLQMNSLKPEDTAVYYCAKGEGYWYIARYLPVGYGYWGQGTQVTVSS | low polyreactivity |
| QVQLVESGGGLVQAGGSLRLSCAASGFTFTPNAMGWYRQAPGKERELVAITWSDGNTYYADSVKGRFTISRDNAKNTVYLQMNSLKPEDTAVYYCNADSTQGAWWPWLNDYWGQGTQVTVSS | high polyreactivity |
| QVQLVESGGGLVQAGGSLRLSCAASGFTFTQYGMGWYRQAPGKEREFVATIRFSGDNTYYADSVKGRFTISRDNAKNTVYLQMNSLKPEDTAVYYCNADNRAFFVYPVSKRYDSWGQGTQVTVSS | low polyreactivity |
| QVQLVESGGGLVQAGGSLRLSCAASGFTFTRNAMGWYRQAPGKERELVAAISSSAGSTSYADSVKGRFTISRDNAKNTVYLQMNSLKPEDTAVYYCAKSYRSSRRYNYWGQGTQVTVSS | high polyreactivity |
| QVQLVESGGGLVQAGGSLRLSCAASGFTFTRYAMGWYRPAPGKERELVAAISWNGGSMYYADSVKGRFTISRDNAKNTVYLQMNSLKPEDTAVYYCAVRFKYQWSKFGYWGQGTQVTVSS | high polyreactivity |
| QVQLVESGGGLVQAGGSLRLSCAASGFTFTRYTMGWYRQAPGKERELVAAITSGGRTNYADSVKGRFTISRDNAKNTVYLQMNSLKPEDTAVYYCAARYVYYWAYGNEYWGHGTQVTVSS | high polyreactivity |
| QVQLVESGGGLVQAGGSLRLSCAASGFTFTSNVMGWYREAPGKEWELVADISASDGRTYYADSVKGRFTISRDNAKNTVYLQMNSLKREDTAVYYCNVSSRRLRGLDYWGQGTQVTVSS | low polyreactivity |
| QVQLVESGGGLVQAGGSLRLSCAASGFTFTSYAMGWYRQAPGKEREFVAAIRRSGSGTYYADSVKGRFTISRDNAKNNVYLQMNSLKPEDTAVYYCAFVPPRLYYHYDYWGQGTQVTVSS | high polyreactivity |
| QVQLVESGGGLVQAGGSLRLSCAASGFTFTSYAMGWYRQAPGKERELVAAITVTGGRTYYADSVKGRFTISRDNAKNTVYLQMNSLKPEDTAVYYCATVFSLSSPYWKHYYWGQGTQVTVSS | high polyreactivity |
| QVQLVESGGGLVQAGGSLRLSCAASGFTFTTYDMGWYRQAPGKERELVAAINSGGSTNYADSVKGRFTISRDNAKNTVYLQMNSLKPEDTAVYYCAAEFYWYYNNFFEDRYYWGQGTQVTVSS | low polyreactivity |
| QVQLVESGGGLVQAGGSLRLSCAASGFTFTYYAMGSYRQAPGKERELVAAITSRGGTTYYADSVKGRFTISRDNAKNTVYLQMNSLKPEDTAVYYCNARHSYWTGRRVTDDYDYWGQGTQVTVSS | high polyreactivity |
| QVQLVESGGGLVQAGGSLRLSCAASGFTFTYYAMGWYRQAPGKERELVAAITRRGGRTYYADSVKGRFTISRDNAKNTVYLQMNSLKPEDTAVYYCNADEYGGSTGRKGRYNYWGQGTQVTVSS | low polyreactivity |
| QVQLVESGGGLVQAGGSLRLSCAASGFTFTYYAMGWYRQAPGKERELVAVISSAGSTYNADSVKGRFTISRDNAKNTVYLQMNSLKPEDTAVYYCNAVGRYYSSGRYGHWGQGTQVTVSS | high polyreactivity |
| QVQLVESGGGLVQAGGSLRLSCAASGFTFTYYDMGWYRQAPGKERELDAAISWSGDYTYYADSVKGRFTISRDNAKNTVYLQMNSLKPEDTAVYYCAALWDVRGYWSSGGYYWGQGTQVTVSS | high polyreactivity |
| QVQLVESGGGLVQAGGSLRLSCAASGFTFTYYDMGWYRQAPGKERELVAAISRSGGRTYYADSVKGRFTISRDNAKNTVYLQMNSLKPEDTAVYYCAARRVDTRVHVRYRYYYWGQGTQVTVSS | high polyreactivity |
| QVQLVESGGGLVQAGGSLRLSCAASGFTFTYYVMGWYRQAPGKERELVAAITSSGGRTYYADSVKGRFTISRDNAKNTVYLQMNSLKPEDTAVYYCNKGPLPGYDYWGQGTQVTVSS | high polyreactivity |
| QVQLVESGGGLVQAGGSLRLSCAASGFTFVAYAMGWYRQAPGKERELVAAISKSGGSTYYADSVKGRFTISRDNAKNSVYLQMNRLKPEDTAVYYCAARYYAYRSDYWGQGTQVTVSS | high polyreactivity |

From the nanobody polyreactivity screen of Harvey et al. (2022)
